Results from patent US20030113322A1 (published 2003).
No end group written: not given here.

These binders were tested against T1, biotinylated recombinant human soluble CD4 (rhCD4, Repligen) (human, UniProt P01730 26-396, limits assumed, biotinylated (sites not given)) (assay: Spot: cellulose-bound dodecapeptide, 20 nM biotinylated rhCD4).
T1 construct: Soluble form, bought; biotinylated with a commercial reagent; also called biotinylated-rhCD4
Description: The saturated membrane was incubated with a 20 nM solution of biotinylated-rhCD4 for 2 h at 37° C. Bound biotinylated-rhCD4 was detected by incubating the membrane for 1 h at 37° with a 1:3000 solution of alkaline phosphatase-conjugated streptavidin (Sigma, St. Louis, Mo., USA) and subsequent addition of 5-bromo-4-chloro-3-indolyl phosphate substrate. […] In all cases, the reactivity of the spots was evaluated by scanning the membrane and measuring the intensities of the spots with the NIH image 1.61 software.
The anti-CD4 immunoreactivity of these peptides was assessed by incubating the membrane with biotinylated-rhCD4.

Binder	binding result
LTTFGVHWVRQS (also: bound to cellulose membrane (Spot synthesis), also called VH peptide 29) [cellulose-bound dodecapeptide 29 of the 13B8.2 VH sequence (linear form of CB1)]	binds
IYSYLAWYQQKQ (also: bound to cellulose membrane (Spot synthesis), also called VL peptide 29) [cellulose-bound dodecapeptide 29 of the 13B8.2 VL sequence (linear form of CB8)]	binds
TTFGVHWVRQSP (also: bound to cellulose membrane (Spot synthesis), also called VH peptide 30) [cellulose-bound dodecapeptide 30 of the 13B8.2 VH sequence (linear form of CB2)]	binds
